One test addresses HLA-B*4001 (human). In words: competition binding assay, purified HLA class I.
For a further test, the target named is HLA-B*4403 (human). Nature of the test: competition binding assay, purified HLA class I.

What is called IC50 is the midpoint of a concentration-inhibition curve. A high value points to weaker potency. For “WEELSML (MAGE2 position 234, 7-mer) (peptide)”, the IC50 with HLA-B*4001 (human) turned out to be 10.4 µM; with HLA-B*4403 (human), 2.01 µM.

(Values after patent publication EP1903056A2.)
